Measurements published in FireProtDB (doi:10.1110/ps.0205902).

Conditions: Aspergillus oryzae (strain ATCC 42149 / RIB 40), pH 3, 25 °C, Urea, CD, Glycine-HCl 3 mM, reversible: yes, whole UniProt chain shown

B1: Guanyl-specific ribonuclease T1 wild type, P00651 (protein)
chain: MMYSKLLTLTTLLLPTALALPSLVERACDYTCGSNCYSSSDVSTAQAAGYQLHEDGETVGSNSYPHKYNNYEGFDFSVSSPYYEWPILSSGDVYSGGSPGADRVVFNENNQLAGVITHTGASGNNFVECT
Q: With B1 as the protein, how does the denaturant m value (Na2SO4 0.01 M) read?
A: Its denaturant m value is 1.67 kcal/mol/M.

Q: What about the “denaturant midpoint (higher = more stable)” value (“denaturant midpoint” below) (Na2SO4 0.01 M) of the same protein?
A: Its value is 2.55 M.

Q: And the unfolding free energy (Na2SO4 0.01 M)?
A: The unfolding free energy was 4.2 kcal/mol.

Q: And the denaturant m value (Na2SO4 0.20 M)?
A: The denaturant m value was 1.52 kcal/mol/M.

Q: What about the “denaturant midpoint” value (Na2SO4 0.20 M) of the same protein?
A: The value was 4.21 M.

Q: And the unfolding free energy (Na2SO4 0.20 M)?
A: The unfolding free energy was 6.38 kcal/mol.

Q: And the denaturant m value (Na2SO4 0.50 M)?
A: The denaturant m value was 1.5 kcal/mol/M.

Q: What about the “denaturant midpoint” value (Na2SO4 0.50 M) of the same protein?
A: Its value is 5.28 M.

Q: What about the unfolding free energy (Na2SO4 0.50 M) of the same protein?
A: Its unfolding free energy is 7.91 kcal/mol.

Q: And the denaturant m value (Na2SO4 0.80 M)?
A: The denaturant m value was 1.47 kcal/mol/M.

Q: What about the “denaturant midpoint” value (Na2SO4 0.80 M) of the same protein?
A: Its value is 5.81 M.

Q: What about the unfolding free energy (Na2SO4 0.80 M) of the same protein?
A: Its unfolding free energy is 8.56 kcal/mol.

Q: What about the denaturant m value (NaCl 0.01 M) of the same protein?
A: The denaturant m value was 2.29 kcal/mol/M.

Q: And the “denaturant midpoint” value (NaCl 0.01 M)?
A: Its value is 1.43 M.

Q: What about the unfolding free energy (NaCl 0.01 M) of the same protein?
A: The unfolding free energy was 3.26 kcal/mol.

Q: And the denaturant m value (NaCl 0.25 M)?
A: The denaturant m value was 1.85 kcal/mol/M.

Q: What about the “denaturant midpoint” value (NaCl 0.25 M) of the same protein?
A: The value was 2 M.

Q: And the unfolding free energy (NaCl 0.25 M)?
A: The unfolding free energy was 3.69 kcal/mol.

Q: What about the denaturant m value (NaCl 0.50 M) of the same protein?
A: Its denaturant m value is 1.8 kcal/mol/M.

Q: What about the “denaturant midpoint” value (NaCl 0.50 M) of the same protein?
A: Its value is 2.49 M.

Q: What about the unfolding free energy (NaCl 0.50 M) of the same protein?
A: Its unfolding free energy is 4.48 kcal/mol.

Q: And the denaturant m value (NaCl 0.75 M)?
A: The denaturant m value was 1.75 kcal/mol/M.

Q: And the “denaturant midpoint” value (NaCl 0.75 M)?
A: Its value is 2.91 M.

Q: And the unfolding free energy (NaCl 0.75 M)?
A: The unfolding free energy was 5.07 kcal/mol.

Q: What about the denaturant m value (NaCl 1.00 M) of the same protein?
A: Its denaturant m value is 1.64 kcal/mol/M.

Q: What about the “denaturant midpoint” value (NaCl 1.00 M) of the same protein?
A: Its value is 3.21 M.

Q: And the unfolding free energy (NaCl 1.00 M)?
A: The unfolding free energy was 5.28 kcal/mol.

Q: And the denaturant m value (NaSCN 0.01 M)?
A: Its denaturant m value is 2.21 kcal/mol/M.

Q: What about the “denaturant midpoint” value (NaSCN 0.01 M) of the same protein?
A: The value was 1.44 M.

Q: What about the unfolding free energy (NaSCN 0.01 M) of the same protein?
A: Its unfolding free energy is 3.05 kcal/mol.

Q: What about the denaturant m value (NaSCN 0.05 M) of the same protein?
A: Its denaturant m value is 1.87 kcal/mol/M.

Q: What about the “denaturant midpoint” value (NaSCN 0.05 M) of the same protein?
A: The value was 1.55 M.

Q: And the unfolding free energy (NaSCN 0.05 M)?
A: The unfolding free energy was 2.91 kcal/mol.

Q: And the denaturant m value (NaSCN 0.25 M)?
A: The denaturant m value was 1.23 kcal/mol/M.

Q: And the “denaturant midpoint” value (NaSCN 0.25 M)?
A: The value was 1.5 M.

Q: And the unfolding free energy (NaSCN 0.25 M)?
A: Its unfolding free energy is 1.85 kcal/mol.

Q: And the denaturant m value (NaSCN 0.50 M)?
A: Its denaturant m value is 1.03 kcal/mol/M.

Q: What about the “denaturant midpoint” value (NaSCN 0.50 M) of the same protein?
A: The value was 1.38 M.

Q: And the unfolding free energy (NaSCN 0.50 M)?
A: The unfolding free energy was 1.43 kcal/mol.

Q: What about the denaturant m value (NaSCN 0.75 M) of the same protein?
A: Its denaturant m value is 1.1 kcal/mol/M.

Q: And the “denaturant midpoint” value (NaSCN 0.75 M)?
A: The value was 1.04 M.

Q: And the unfolding free energy (NaSCN 0.75 M)?
A: The unfolding free energy was 1.14 kcal/mol.

Q: And the denaturant m value?
A: Its denaturant m value is 2.24 kcal/mol/M.

Q: What about the “denaturant midpoint” value of the same protein?
A: The value was 1.48 M.

Q: And the unfolding free energy?
A: Its unfolding free energy is 3.28 kcal/mol.
